We go through two molecules from patent US20110301095A1 (SANFORD BURNHAM MEDICAL RESEARCH INSTITUTE CALIFORNIA, published 2011).

Assay [1] addresses Flag-HIF-1α (mouse HIF-1α in pCVM-Flag vector, expressed in transfected cells) (mouse) (UniProt Q61221). Description: cell-based or functional assay.
Assay [2] addresses T1, Flag-HIF-1α (mouse HIF-1α in pCVM-Flag vector, expressed in transfected cells) (mouse, UniProt Q61221-2 1-822, limits assumed).
T1 construct: not shown: Flag tag
Description: co-expression in 293T cells, immunoprecipitation of Flag-HIF-1α with M2 beads, immunoblot. The procedure:
Immunoprecipitation and Western blotting. For immunoprecipitation, cells were harvested in lysis buffer containing 50 mM Tris-HCl pH7.5, 150 mM NaCl, 0.5% NP40, 1 mM EDTA, 1 mM sodium orthovanadate, 1mM PMSF, 10 μg/ml aprotinin, 10 μg/ml leupeptine and 10 μg/ml pepstatin A. To immunoprecipitate Flag-tagged proteins, lysates were incubated with M2 beads (Sigma) overnight, the beads were washed 3 times, and precipitated proteins were eluted with 1 mg/ml of flag peptide. To immunoprecipitate endogenous proteins, cells lysates were incubated with 3 μg of primary antibodies overnight, and followed by incubation with Protein G beads for 1 h. After washing 3 times, the precipitated proteins were eluted with SDS loading buffer. To extract whole cell lysate, cells were harvested using RIPA buffer (50 mM Tris-HCl (pH7.5), 150 mM NaCl, 1% Triton X-100, 0.1% SDS, 0.1% Na-deoxycholate, 1 mM EDTA, 1 mM sodium orthovanadate, 1 mM PMSF, 10 μg/ml aprotinin, and 10 μg/ml leupeptine). Cell lysates were subjected to SDS-PAGE and proteins transferred onto a nitrocellulose membrane (Osmonics Inc.). The membrane was probed with primary antibodies followed by a secondary antibody conjugated with fluorescent dye and detected by the Odyssey detecting system ([…]).

Chain of Flag-HIF-1α (mouse HIF-1α in pCVM-Flag vector, expressed in transfected cells) (mouse) (Q61221 other isoform, or with tags, fused parts or gaps limits assumed): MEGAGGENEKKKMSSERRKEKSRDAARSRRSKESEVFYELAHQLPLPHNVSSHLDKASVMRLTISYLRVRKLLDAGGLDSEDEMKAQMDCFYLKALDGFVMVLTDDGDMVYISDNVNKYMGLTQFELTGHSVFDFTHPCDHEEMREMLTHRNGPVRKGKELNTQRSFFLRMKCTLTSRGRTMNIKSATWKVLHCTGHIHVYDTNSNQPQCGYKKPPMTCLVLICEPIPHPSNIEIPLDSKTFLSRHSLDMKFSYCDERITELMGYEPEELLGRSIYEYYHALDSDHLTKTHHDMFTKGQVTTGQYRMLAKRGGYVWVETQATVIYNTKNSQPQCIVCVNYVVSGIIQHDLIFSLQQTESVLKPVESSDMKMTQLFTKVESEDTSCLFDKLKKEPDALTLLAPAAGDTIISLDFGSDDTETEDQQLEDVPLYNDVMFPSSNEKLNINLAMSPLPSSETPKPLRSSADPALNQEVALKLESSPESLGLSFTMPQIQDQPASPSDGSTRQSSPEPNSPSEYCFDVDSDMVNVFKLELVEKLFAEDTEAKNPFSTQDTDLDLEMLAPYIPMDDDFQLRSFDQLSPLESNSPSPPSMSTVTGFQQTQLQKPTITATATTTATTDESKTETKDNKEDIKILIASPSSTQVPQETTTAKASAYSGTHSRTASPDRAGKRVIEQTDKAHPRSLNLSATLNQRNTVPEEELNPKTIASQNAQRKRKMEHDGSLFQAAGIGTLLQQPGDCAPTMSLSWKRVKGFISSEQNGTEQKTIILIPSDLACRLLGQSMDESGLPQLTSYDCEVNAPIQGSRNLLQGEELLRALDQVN
T1 sequence (Q61221 other isoform, or with tags, fused parts or gaps limits assumed): as above

In assay [1], “exogenous FoxA2 expressed in TRAMP-C cells (luciferase assay of FIG. 3A)” displayed an HRE-Luc luciferase activity in TRAMP-C cells of 6 fold.

B1: HA-FoxA1 (HA-tagged rat FoxA1 in pcDNA3) (other, UniProt P23512 1-466, looked up)
chain: MLGTVKMEGHESNDWNSYYADTQEAYSSVPVSNMNSGLGSMNSMNTYMTMNTMTTSGNMTPASFNMSYANPGLGAGLSPGAVAGMPGGSAGAMNSMTAAGVTAMGAALSPGGMGSMGAQPAASMNGLGPYAAAMNPCMSPMAYAPSNLGRSRAGGGGDAKTFKRSYPHAKPPYSYISLITMAIQQAPSKMLTLSEIYQWIMDLFPYYRQNQQRWQNSIRHSLSFNACFVKVARSPDKPGKGSYWTLHPDSGNMFENGCYLRRQKRFKCEKQPGAGGGSGGGGSKGVPENRKDPSGPVNPSAESPIHRGVHGKASQLEGAPAPGPAASPQTLDHSGATATGGGSELKSPASSSAPPISSGPGGWICTPLSPTWLAPHESQLHLKGAPHYSFNHPFSINNLMSSSEQQHKLDFKAYEQALQYSPYGATLPASLPLGGASVATRSPIEPSALEPAYYQGVYSRPVLNTS
notes: not shown: HA tag
With B1, the binding result in assay [2] is recorded as “no binding”.
